{
  "source": "paper PMC4176381",
  "about": "“A combination of computational and experimental approaches identifies DNA sequence constraints associated with target site binding specificity of the transcription factor CSL”",
  "binders": {"B1": {"name": "M4 (S3, CGTGTGAA) (dsDNA)", "DNA 1": "ACCGAAACCGTGTGAACTGGTAGAAAG", "DNA 2": "CTTTCTACCAGTTCACACGGTTTCGGT"}, "B2": {"name": "M11 (S10, CATGGGGA) (dsDNA)", "DNA 1": "ACCGAAACCATGGGGACTGGTAGAAAG", "DNA 2": "CTTTCTACCAGTCCCCATGGTTTCGGT"}, "B3": {"name": "M1 (S1, CGTGGGAA) (dsDNA)", "DNA 1": "ACCGAAACCGTGGGAACTGGTAGAAAG", "DNA 2": "CTTTCTACCAGTTCCCACGGTTTCGGT"}, "B4": {"name": "ITC duplex TCATACCT (dsDNA)", "DNA 1": "GCTACTCATACCTAGAACG", "DNA 2": "CGTTCTAGGTATGAGTAGC"}, "B5": {"name": "ITC duplex CGTGGGAA (dsDNA)", "DNA 1": "GTTACCGTGGGAAAGAAAG", "DNA 2": "CTTTCTTTCCCACGGTAAC"}, "B6": {"name": "M3 (S2, TGTGGGAA) (dsDNA)", "DNA 1": "ACCGAAACTGTGGGAACTGGTAGAAAG", "DNA 2": "CTTTCTACCAGTTCCCACTGTTTCGGT"}, "B7": {"name": "M8 (S7, TATAAGAA) (dsDNA)", "DNA 1": "ACCGAAACTATAAGAACTGGTAGAAAG", "DNA 2": "CTTTCTACCAGTTCTTATAGTTTCGGT"}, "B8": {"name": "ITC duplex TGTGGGAA (dsDNA)", "DNA 1": "GTTACTGTGGGAAAGAAAG", "DNA 2": "CTTTCTTTCCCACAGTAAC"}, "B9": {"name": "ITC duplex CGTGTGAC (dsDNA)", "DNA 1": "GTTACCGTGTGACAGAAAG", "DNA 2": "CTTTCTGTCACACGGTAAC"}},
  "key": {"GST-Su(H) (CSL) [1]": {"biological_target": "T1, GST-Su(H) (CSL) (UniProt P28159 110-594)", "T1 sequence (P28159 110-594)": "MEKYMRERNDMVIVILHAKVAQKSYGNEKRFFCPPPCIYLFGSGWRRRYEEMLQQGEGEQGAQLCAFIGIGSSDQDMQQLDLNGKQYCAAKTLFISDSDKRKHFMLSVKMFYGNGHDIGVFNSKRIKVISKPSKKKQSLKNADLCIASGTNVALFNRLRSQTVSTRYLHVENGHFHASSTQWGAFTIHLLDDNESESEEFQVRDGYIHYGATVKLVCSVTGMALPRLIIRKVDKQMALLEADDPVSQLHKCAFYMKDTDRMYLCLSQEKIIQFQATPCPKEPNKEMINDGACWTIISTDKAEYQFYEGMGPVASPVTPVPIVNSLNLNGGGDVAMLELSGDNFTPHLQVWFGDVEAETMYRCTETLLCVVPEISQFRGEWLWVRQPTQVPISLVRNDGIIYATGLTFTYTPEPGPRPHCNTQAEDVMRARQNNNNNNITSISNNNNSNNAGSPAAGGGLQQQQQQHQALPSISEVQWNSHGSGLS", "assay": "competition; EMSA, labeled M1 probe; 2.4-fold vs M3; ITC: 50 mM sodium phosphate pH 6.5, 150 mM NaCl, 10 C (10 uM CSL in cell, 100 uM DNA in syringe). EMSA: 150 mM KCl, 50 mM Tris pH 7.4, 1 mM DTT, 2% polyvinyl alcohol, 30 ng/ul poly(dI-dC), on ice 30 min, 25 fmol biotin probe in 5 ul", "conditions": "protein: recombinant; tags: N-terminal GST; blunt"}, "GST-Su(H) (CSL) [2]": {"biological_target": "T1, GST-Su(H) (CSL)", "T1 sequence (P28159 110-594)": "as above", "assay": "competition; not detectable at 125x excess; ITC: 50 mM sodium phosphate pH 6.5, 150 mM NaCl, 10 C (10 uM CSL in cell, 100 uM DNA in syringe). EMSA: 150 mM KCl, 50 mM Tris pH 7.4, 1 mM DTT, 2% polyvinyl alcohol, 30 ng/ul poly(dI-dC), on ice 30 min, 25 fmol biotin probe in 5 ul", "conditions": "protein: recombinant; tags: N-terminal GST; blunt"}, "GST-Su(H) (CSL) [3]": {"biological_target": "T1, GST-Su(H) (CSL)", "assay": "EMSA; labeled probe; self-competes at 25x excess; ITC: 50 mM sodium phosphate pH 6.5, 150 mM NaCl, 10 C (10 uM CSL in cell, 100 uM DNA in syringe). EMSA: 150 mM KCl, 50 mM Tris pH 7.4, 1 mM DTT, 2% polyvinyl alcohol, 30 ng/ul poly(dI-dC), on ice 30 min, 25 fmol biotin probe in 5 ul", "conditions": "protein: recombinant; tags: N-terminal GST; label: 3' biotin when used as probe; blunt"}, "CSL (RBPJ) [4]": {"biological_target": "T2, CSL (RBPJ) (Mus musculus, UniProt P31266 53-474)", "T2 sequence (P31266 53-474)": "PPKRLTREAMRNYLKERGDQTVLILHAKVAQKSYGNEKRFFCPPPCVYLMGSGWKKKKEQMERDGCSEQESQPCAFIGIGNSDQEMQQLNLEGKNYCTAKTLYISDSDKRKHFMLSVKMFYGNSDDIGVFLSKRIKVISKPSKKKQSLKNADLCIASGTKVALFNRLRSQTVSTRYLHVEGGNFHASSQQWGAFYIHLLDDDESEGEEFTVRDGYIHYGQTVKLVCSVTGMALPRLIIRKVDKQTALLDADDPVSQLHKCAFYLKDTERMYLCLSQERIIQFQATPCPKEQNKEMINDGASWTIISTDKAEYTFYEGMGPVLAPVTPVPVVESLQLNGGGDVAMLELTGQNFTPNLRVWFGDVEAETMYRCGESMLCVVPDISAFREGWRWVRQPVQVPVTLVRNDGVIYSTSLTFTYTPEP", "assay": "ITC; no binding detected; ITC: 50 mM sodium phosphate pH 6.5, 150 mM NaCl, 10 C (10 uM CSL in cell, 100 uM DNA in syringe). EMSA: 150 mM KCl, 50 mM Tris pH 7.4, 1 mM DTT, 2% polyvinyl alcohol, 30 ng/ul poly(dI-dC), on ice 30 min, 25 fmol biotin probe in 5 ul", "conditions": "protein: recombinant; tags: GST tag cleaved off"}, "CSL (RBPJ) [5]": {"biological_target": "T2, CSL (RBPJ)", "assay": "ITC; K = 2.2 +/- 1.4 x10^7 M-1; n=3; ITC: 50 mM sodium phosphate pH 6.5, 150 mM NaCl, 10 C (10 uM CSL in cell, 100 uM DNA in syringe). EMSA: 150 mM KCl, 50 mM Tris pH 7.4, 1 mM DTT, 2% polyvinyl alcohol, 30 ng/ul poly(dI-dC), on ice 30 min, 25 fmol biotin probe in 5 ul", "conditions": "protein: recombinant; tags: GST tag cleaved off"}, "GST-Su(H) (CSL) [6]": {"biological_target": "T1, GST-Su(H) (CSL)", "assay": "competition; EMSA, labeled M1 probe; 2.84-fold at 10x; ITC: 50 mM sodium phosphate pH 6.5, 150 mM NaCl, 10 C (10 uM CSL in cell, 100 uM DNA in syringe). EMSA: 150 mM KCl, 50 mM Tris pH 7.4, 1 mM DTT, 2% polyvinyl alcohol, 30 ng/ul poly(dI-dC), on ice 30 min, 25 fmol biotin probe in 5 ul", "conditions": "protein: recombinant; tags: N-terminal GST; blunt"}, "GST-Su(H) (CSL) [7]": {"biological_target": "T1, GST-Su(H) (CSL)", "assay": "competition; failed to compete at 125x; ITC: 50 mM sodium phosphate pH 6.5, 150 mM NaCl, 10 C (10 uM CSL in cell, 100 uM DNA in syringe). EMSA: 150 mM KCl, 50 mM Tris pH 7.4, 1 mM DTT, 2% polyvinyl alcohol, 30 ng/ul poly(dI-dC), on ice 30 min, 25 fmol biotin probe in 5 ul", "conditions": "protein: recombinant; tags: N-terminal GST; blunt"}, "CSL (RBPJ) [8]": {"biological_target": "T2, CSL (RBPJ)", "assay": "ITC; K = 2.0 +/- 0.5 x10^6 M-1; n=3; ITC: 50 mM sodium phosphate pH 6.5, 150 mM NaCl, 10 C (10 uM CSL in cell, 100 uM DNA in syringe). EMSA: 150 mM KCl, 50 mM Tris pH 7.4, 1 mM DTT, 2% polyvinyl alcohol, 30 ng/ul poly(dI-dC), on ice 30 min, 25 fmol biotin probe in 5 ul", "conditions": "protein: recombinant; tags: GST tag cleaved off"}, "CSL (RBPJ) [9]": {"biological_target": "T2, CSL (RBPJ)", "assay": "ITC; K = 5.9 +/- 1.0 x10^5 M-1; n=3; ITC: 50 mM sodium phosphate pH 6.5, 150 mM NaCl, 10 C (10 uM CSL in cell, 100 uM DNA in syringe). EMSA: 150 mM KCl, 50 mM Tris pH 7.4, 1 mM DTT, 2% polyvinyl alcohol, 30 ng/ul poly(dI-dC), on ice 30 min, 25 fmol biotin probe in 5 ul", "conditions": "protein: recombinant; tags: GST tag cleaved off"}},
  "data": [
    {"binder": "B1", "values": [
      {"measurement": "binding signal", "setting": "GST-Su(H) (CSL) [1]", "value": "9 fold difference vs M1 at 25x excess"}
    ]},
    {"binder": "B2", "values": [
      {"measurement": "binding result", "setting": "GST-Su(H) (CSL) [2]", "value": "no binding"}
    ]},
    {"binder": "B3", "values": [
      {"measurement": "binding result", "setting": "GST-Su(H) (CSL) [3]", "value": "binds"}
    ]},
    {"binder": "B4", "values": [
      {"measurement": "binding result", "setting": "CSL (RBPJ) [4]", "value": "no binding"}
    ]},
    {"binder": "B5", "values": [
      {"measurement": "Kd", "setting": "CSL (RBPJ) [5]", "value": 60, "unit": "nM"}
    ]},
    {"binder": "B6", "values": [
      {"measurement": "binding signal", "setting": "GST-Su(H) (CSL) [6]", "value": "3.67 fold difference vs M1 at 25x excess"}
    ]},
    {"binder": "B7", "values": [
      {"measurement": "binding result", "setting": "GST-Su(H) (CSL) [7]", "value": "no binding"}
    ]},
    {"binder": "B8", "values": [
      {"measurement": "Kd", "setting": "CSL (RBPJ) [8]", "value": 500, "unit": "nM"}
    ]},
    {"binder": "B9", "values": [
      {"measurement": "Kd", "setting": "CSL (RBPJ) [9]", "value": 1720, "unit": "nM"}
    ]}
  ]
}
